What was measured:
Experiment in all cases: SPR
XRCC4-Ala;XLF-Ala = details: 1 uM each; described as similar to WT-WT; EMSA: 10 mM HEPES pH 8, 75 mM KCl, 0.5 mM EDTA, 0.5 mM DTT, 5% glycerol, RT 30 min, 200 ng DNA/10 ul; SPR: 20 mM HEPES pH 8, 75 mM KCl, 10% glycerol, 1 mM DTT …
XRCC4-Ala;XLF-WT = details: 1 uM each; described as similar to WT-WT; EMSA: 10 mM HEPES pH 8, 75 mM KCl, 0.5 mM EDTA, 0.5 mM DTT, 5% glycerol, RT 30 min, 200 ng DNA/10 ul; SPR: 20 mM HEPES pH 8, 75 mM KCl, 10% glycerol, 1 mM DTT …
XRCC4-Asp;XLF-Asp = details: 1 uM each; koff_fast 4-fold faster than WT-WT; EMSA: 10 mM HEPES pH 8, 75 mM KCl, 0.5 mM EDTA, 0.5 mM DTT, 5% glycerol, RT 30 min, 200 ng DNA/10 ul; SPR: 20 mM HEPES pH 8, 75 mM KCl, 10% glycerol, 1 mM DTT …
XRCC4-WT;XLF-Ala = details: 1 uM each; described as similar to WT-WT; EMSA: 10 mM HEPES pH 8, 75 mM KCl, 0.5 mM EDTA, 0.5 mM DTT, 5% glycerol, RT 30 min, 200 ng DNA/10 ul; SPR: 20 mM HEPES pH 8, 75 mM KCl, 10% glycerol, 1 mM DTT …
XRCC4-WT;XLF-WT = details: 1 uM each; EMSA: 10 mM HEPES pH 8, 75 mM KCl, 0.5 mM EDTA, 0.5 mM DTT, 5% glycerol, RT 30 min, 200 ng DNA/10 ul; SPR: 20 mM HEPES pH 8, 75 mM KCl, 10% glycerol, 1 mM DTT …

**Q.** 400 bp SPR DNA was tested. Which binding signal (fold equilibrium affinity vs WT-WT) (XRCC4-Ala;XLF-Ala) did it give?
**A.** 1

**Q.** What about the binding signal (fold equilibrium affinity vs WT-WT) (XRCC4-Ala;XLF-WT) of the same substance?
**A.** 1

**Q.** What about the binding signal (fold equilibrium affinity vs WT-WT) (XRCC4-Asp;XLF-Asp) of the same substance?
**A.** 0.25

**Q.** What about the binding signal (fold equilibrium affinity vs WT-WT) (XRCC4-WT;XLF-Ala) of the same substance?
**A.** 1

**Q.** What about the binding signal (fold equilibrium affinity (reference)) (XRCC4-WT;XLF-WT) of the same substance?
**A.** 1
